From publication PMC3720794

Key:
Test in all cases: pre-steady-state rapid-quench kinetics
MGMT WT = MGMT WT (Homo sapiens, UniProt P16455 1-207)
MGMT G132R = MGMT G132R (Homo sapiens, UniProt P16455 1-207, G132R)
MGMT G156C = MGMT G156C (Homo sapiens, UniProt P16455 1-207, G156C)
MGMT G156C, sequence (P16455 whole entry G156C): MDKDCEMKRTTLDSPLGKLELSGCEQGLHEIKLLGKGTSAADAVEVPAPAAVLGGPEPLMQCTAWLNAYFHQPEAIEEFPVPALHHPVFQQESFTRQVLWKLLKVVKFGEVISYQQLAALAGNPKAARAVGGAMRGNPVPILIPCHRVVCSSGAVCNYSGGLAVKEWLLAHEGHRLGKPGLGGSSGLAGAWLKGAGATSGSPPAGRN

MGMT WT, sequence (P16455 whole entry): as the sequence (P16455 whole entry G156C) above, with C156G counted along it
MGMT G132R, sequence (P16455 whole entry G132R): as the sequence (P16455 whole entry G156C) above, with G132R, C156G counted along it

B1: PvuIITopD/PvuIIBottom (O6MeG 18 bp duplex) (dsDNA)
DNA 1: GCCCGGCCAGCTGCAGTT
DNA 2: AACTGCAGCTGGCCGGGC
modifications: O6-methylguanine at position 13 of strand 1 (printed as X), paired with C
Kd (MGMT WT): 6.2 ± 0.7 nM
Kd (MGMT G132R): 14 ± 3 nM
Kd (MGMT G156C): 240 ± 60 nM
